Data: patent US20090081211A1 (published 2009)

Molecular target: human C3b (UniProt P01024 23-667; P01024 749-1663)
Experiment: SPR

human C3b, sequence (P01024 other isoform, or with tags, fused parts or gaps, chain 1 of 2): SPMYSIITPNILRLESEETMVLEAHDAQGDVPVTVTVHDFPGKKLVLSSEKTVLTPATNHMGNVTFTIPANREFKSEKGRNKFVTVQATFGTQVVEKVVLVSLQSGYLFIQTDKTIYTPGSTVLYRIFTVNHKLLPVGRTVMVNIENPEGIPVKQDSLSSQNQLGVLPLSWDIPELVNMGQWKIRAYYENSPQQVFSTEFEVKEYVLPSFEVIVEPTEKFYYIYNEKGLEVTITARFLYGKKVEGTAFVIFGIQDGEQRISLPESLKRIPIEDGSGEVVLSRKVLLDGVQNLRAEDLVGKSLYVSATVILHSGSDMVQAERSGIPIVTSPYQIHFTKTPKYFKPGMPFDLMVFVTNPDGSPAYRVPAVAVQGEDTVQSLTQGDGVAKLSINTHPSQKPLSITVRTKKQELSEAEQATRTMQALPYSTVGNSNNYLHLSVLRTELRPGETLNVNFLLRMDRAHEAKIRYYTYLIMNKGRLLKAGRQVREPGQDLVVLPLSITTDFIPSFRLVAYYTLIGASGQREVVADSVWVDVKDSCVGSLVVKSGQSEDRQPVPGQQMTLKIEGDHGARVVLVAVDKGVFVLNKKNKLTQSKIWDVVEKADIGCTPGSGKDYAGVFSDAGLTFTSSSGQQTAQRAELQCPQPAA
human C3b, sequence (P01024 other isoform, or with tags, fused parts or gaps, chain 2 of 2): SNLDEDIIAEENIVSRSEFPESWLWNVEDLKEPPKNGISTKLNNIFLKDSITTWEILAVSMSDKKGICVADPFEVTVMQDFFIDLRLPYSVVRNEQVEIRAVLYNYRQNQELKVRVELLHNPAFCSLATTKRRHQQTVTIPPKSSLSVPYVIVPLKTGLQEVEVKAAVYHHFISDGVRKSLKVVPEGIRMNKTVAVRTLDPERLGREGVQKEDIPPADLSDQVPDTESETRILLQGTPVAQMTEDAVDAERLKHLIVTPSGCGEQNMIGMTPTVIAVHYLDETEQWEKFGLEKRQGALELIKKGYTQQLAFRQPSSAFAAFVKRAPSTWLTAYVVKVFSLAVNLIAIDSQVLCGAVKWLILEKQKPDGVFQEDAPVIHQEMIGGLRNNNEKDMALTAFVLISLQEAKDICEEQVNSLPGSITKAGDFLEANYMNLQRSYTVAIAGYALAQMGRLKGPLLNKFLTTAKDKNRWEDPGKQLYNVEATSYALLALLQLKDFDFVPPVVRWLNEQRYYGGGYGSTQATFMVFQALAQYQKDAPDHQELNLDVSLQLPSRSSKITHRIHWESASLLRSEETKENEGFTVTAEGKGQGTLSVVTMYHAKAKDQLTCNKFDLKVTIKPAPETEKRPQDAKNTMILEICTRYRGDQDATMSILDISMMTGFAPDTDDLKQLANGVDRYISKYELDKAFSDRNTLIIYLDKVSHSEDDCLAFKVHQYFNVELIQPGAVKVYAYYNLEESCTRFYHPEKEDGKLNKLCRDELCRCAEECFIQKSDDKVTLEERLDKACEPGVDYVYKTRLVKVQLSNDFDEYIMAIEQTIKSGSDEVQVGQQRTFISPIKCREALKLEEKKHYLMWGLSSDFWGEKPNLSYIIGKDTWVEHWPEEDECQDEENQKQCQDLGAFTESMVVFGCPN

- Kd: 6.47 nM
B1: antibody YW144.2.43.S77 Fab fragment (Fab, V domains shown)
VH: EVQLVESGGGLVQPGGSLRLSCAASGFSFTSSSVSWVRQAPGKGLEWVGLIYPYNGFNYYADSVKGRFTISADTSKNTAYLQMNSLRAEDTAVYYCARNALYGSGGYYAMDYWGQGTLVTVSS
VL: DIQMTQSPSSLSASVGDRVTITCRASQDVSTAVAWYQQKPGKAPKLLIYSASFLYSGVPSRFSGSGSGTDFTLTISSLQPEDFATYYCQQSYATLPTFEQGTKVEIK
